From PMC12543377, “https://orcid.org/0000-0003-0166-1786 Gustavsson Emil Data curation Formal analysis Investigation Methodology Project administration Validation Visualization Writing - original draft Writing - review” come the findings set out here.

Data set [1] has as its target T1, OBP (UL9 origin-binding protein), dimer (Herpes simplex virus 1, UniProt D3YPE9 1-851). Nature of the data set: cryo-EM; no nucleotide; 5 mM MgCl2; one dimer at Box 1; 20 mM HEPES pH 7.8, 150 mM NaCl, 5 mM MgCl2, 2 mM DTT, 5% glycerol; 2 uM OBP, protein:DNA 1:1.2, 37 C 30 min, then vitrified. The note with it: protein: recombinant; (StrepTrap purification; tag not described); chain copies: 2.

For data set [2], the target named is T1, OBP (UL9 origin-binding protein), dimer. Briefly: cryo-EM; ATPgS, Mg2+; one dimer at Box 1; 20 mM HEPES pH 7.8, 150 mM NaCl, 5 mM MgCl2, 2 mM DTT, 5% glycerol; 2 uM OBP, protein:DNA 1:1.2, 37 C 30 min, then vitrified. The note with it: protein: recombinant; (StrepTrap purification; tag not described); chain copies: 2.
The target of data set [3] is T2, OBP (UL9 origin-binding protein), dimer-dimer assembly (Herpes simplex virus 1, UniProt D3YPE9 1-851). Nature of the data set: cryo-EM (2D classes); two dimers, each apparently on two antiparallel OriS helices (Box 1 and Box 2); low frequency; 20 mM HEPES pH 7.8, 150 mM NaCl, 5 mM MgCl2, 2 mM DTT, 5% glycerol; 2 uM OBP, protein:DNA 1:1.2, 37 C 30 min, then vitrified. The note with it: protein: recombinant; (StrepTrap purification; tag not described); chain copies: 4.

The target of data set [4] is OBP (UL9 origin-binding protein), monomer (Herpes simplex virus 1, UniProt D3YPE9 1-851). Briefly: cryo-EM; monomer; preferred orientation, DNA path needs validation; 20 mM HEPES pH 7.8, 150 mM NaCl, 5 mM MgCl2, 2 mM DTT, 5% glycerol; 2 uM OBP, protein:DNA 1:1.2, 37 C 30 min, then vitrified. The note with it: protein: recombinant; (StrepTrap purification; tag not described); hairpin with 3' single-stranded tail.

Data set [5] addresses T2, OBP (UL9 origin-binding protein), …. Briefly: cryo-EM; two dimers with putatively two mini-OriS* copies; 20 mM HEPES pH 7.8, 150 mM NaCl, 5 mM MgCl2, 2 mM DTT, 5% glycerol; 2 uM OBP, protein:DNA 1:1.2, 37 C 30 min, then vitrified. The note with it: protein: recombinant; (StrepTrap purification; tag not described); chain copies: 4; hairpin with 3' single-stranded tail.
Data set [6] concerns the molecule itself. Briefly: cryo-EM structure; OBP + mini-OriS*, dimer-dimer assembly dataset; same reconstitution; lower resolution; dimers to dimer-dimer assembly.

The term stoichiometry N denotes the number of molecules, sites or subunits per partner or assembly.

B1: OriS-6AT (dsDNA)
DNA 1: AAAAGAAGTGAGAACGCGAAGCGTTCGCACTTCGTCCCAATATATTATTAGGGCGAAGTGCGAGCACTGGCGCC
DNA 2: GGCGCCAGTGCTCGCACTTCGCCCTAATAATATATTGGGACGAAGTGCGAACGCTTCGCGTTCTCACTTCTTTT
Consider B1, for which the binding result in data set [1] is on record as “binds”.

B2: OriS (dsDNA)
DNA 1: AAAAGAAGTGAGAACGCGAAGCGTTCGCACTTCGTCCCAATATATATATATTATTAGGGCGAAGTGCGAGCACTGGCGCC
DNA 2: GGCGCCAGTGCTCGCACTTCGCCCTAATAATATATATATATTGGGACGAAGTGCGAACGCTTCGCGTTCTCACTTCTTTT
In the case of B2, the binding result in data set [2] and in data set [3] was “binds” throughout. For the molecule AAAAGAAGTGAGAACGCGAAGCGTTCGCACTTCGTTTTTTTTTT (structured_DNA) [mini-OriS*], the binding result in data set [4] and in data set [5] was “binds” in each case.

B3: HSV-1 origin-binding protein (OBP), encoded by the UL9 gene (enzyme)
chain: MPFVGGAESGDPLGAGRPIGDDECEQYTSSVSLARMLYGGDLAEWVPRVHPKTTIERQQHGPVTFPNASAPTARCVTVVRAPMGSGKTTALIRWLREAIHSPDTSVLVVSCRRSFTQTLATRFAESGLVDFVTYFSSTNYIMNDRPFHRLIVQVESLHRVGPNLLNNYDVLVLDEVMSTLGQLYSPTMQQLGRVDALMLRLLRICPRIIAMDATANAQLVDFLCGLRGEKNVHVVVGEYAMPGFSARRCLFLPRLGTELLQAALRPPGPPSGPSPDASPEARGATFFGELEARLGGGDNICIFSSTVSFAEIVARFCRQFTDRVLLLHSLTPLGDVTTWGQYRVVIYTTVVTVGLSFDPLHFDGMFAYVKPMNYGPDMVSVYQSLGRVRTLRKGELLIYMDGSGARSEPVFTPMLLNHVVSSCGQWPAQFSQVTNLLCRRFKGRCDASACDTSLGRGSRIYNKFRYKHYFERCTLACLSDSLNILHMLLTLNCIRVRFWGHDDTLTPKDFCLFLRGVHFDALRAQRDLRELRCRDPEASLPAQAAETEEVGLFVEKYLRSDVAPAEIVALMRNLNSLMGRTRFIYLALLEACLRVPMATRSSAIFRRIYDHYATGVIPTINVTGELELVALPPTLNVTPVWELLCLCSTMAARLHWDSAAGGSGRTFGPDDVLDLLTPHYDRYMQLVFELGHCNVTDGLLLSEEAVKRVADALSGCPPRGSVSETDHAVALFKIIWGELFGVQMAKSTQTFPGAGRVKNLTKQTIVGLLDAHHIDHSACRTHRQLYALLMAHKREFAGARFKLRVPAWGRCLRTHSSSANPNADIILEAALSELPTEAWPMMQGAVNFSTL
notes: No viral strain is named; Tag removal is not mentioned; also called monomer A; monomer B; source: ExpiSf9 cells (recombinant baculovirus), purified (StrepTrap HP, eluted with desthiobiotin)
Turning to B3, the “stoichiometry N” value in data set [6] came out at 4.
